Results: the supplement of paper PMC7877785
± gives the uncertainty stated by the source.

Assay: self-splicing fitness, log relative to wild type (ln ratio); higher = more splicing; Tetrahymena group I intron in knt gene, E. coli kanamycin selection, DiMSum; sequences stand for … in CUCUCU…GGAGGGAAAAGUUAUCAGGCAUGCACCUGGUAGCUAGUCUUUAAACCAAUAGAUUGCAUCGGUUUAAAAGGCAAGACCGUCAAAUUGCGGGAAAGGGGUCAACAGCCGUUCAGUACCAAGUCUCAGGGGAAACUUUGAGAUGGCCUUGCAAAGGGUAUGGUAAUAAGCUGACGGACAUGGUCCUAACCACGCAGCCAAGUCCUAAGUCAACAGAUCUUCUGUUGAUAUGGAUGCAGUUCACAGACUAAAUGUCGGUCGGGGAAGAUGUAUUCUUCUCAUAAGAUAUAGUCGGACCUCUCCUUAAUGGGAGCUAGCGGAUGAAGUGAUGCAACACUGGAGCCGCUGGGAACUAAUUUGUAUGCGAAAGUAUAUUGAUUAGUUUUGGAGUACUCGUGGUCG
Procedure, shortened: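 Library with all eight P1ex-region intron nucleotides randomised, intron inside the knt kanamycin-resistance gene on pET-22b(+), in E. coli BL21(DE3). Cells grew overnight at 37°C or 30°C on LB agar with or without 25 μg/mL kanamycin (plus 100 μg/mL carbenicillin, 50 μM IPTG, 0.2% rhamnose), in six replicate transformations. Pooled colonies were amplicon-sequenced on Illumina HiSeq 2500. DiMSum fitness is the error-weighted combination of wild-type-normalised replicate fold changes, kanamycin versus none.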

Row | Sequence | self-splicing fitness (ln) (37 °C) | self-splicing fitness (ln) (30 °C)
1 | ACUUAGCAAUAUUACGAGUC | -3.01 ± 0.35 | –
2 | ACUUAGCAAUAUUACGCAAG | -1.32 ± 0.14 | -2.24 ± 0.17
3 | ACUUAGCAAUAUUACGCAUA | -1.42 ± 0.14 | -1.74 ± 0.12
4 | ACUUAGCAAUAUUACGCCUG | -0.484 ± 0.19 | -1.12 ± 0.18
5 | ACUUAGCAAUAUUACGCUUA | -1.75 ± 0.21 | -1.26 ± 0.15
6 | ACUUAGCAAUAUUACGCUUC | -2.18 ± 0.45 | -2.32 ± 0.19
7 | ACUUAGCAAUAUUACGGAGG | -1.48 ± 0.16 | -2.19 ± 0.13
8 | ACUUAGCAAUAUUACGGGGG | -1.96 ± 0.21 | -2.98 ± 0.23
9 | ACUUAGCAAUAUUACGUAAC | -2.43 ± 0.2 | -2.9 ± 0.12
10 | ACUUAGCAAUAUUACGUACC | -1.06 ± 0.23 | -2.17 ± 0.23
11 | ACUUAGCAAUAUUACGUCUC | -3.34 ± 0.32 | -2.31 ± 0.25
12 | ACUUAGCAAUAUUACGUUAC | -2.55 ± 0.38 | -3.55 ± 0.26
13 | ACUUAGCAAUAUUACGUUAU | -1.31 ± 0.16 | -3.66 ± 0.22
14 | AGAAAGCAAUAUUACGAAAG | -1.94 ± 0.18 | -3.93 ± 0.21
15 | AGAAAGCAAUAUUACGAGAU | -1.99 ± 0.2 | -3.45 ± 0.24
16 | AGAAAGCAAUAUUACGAGGA | -2.71 ± 0.16 | -3.15 ± 0.15
17 | AGAAAGCAAUAUUACGAGUC | -1.57 ± 0.18 | -3.82 ± 0.33
18 | AGAAAGCAAUAUUACGCAAG | -1.32 ± 0.18 | -1.66 ± 0.13
19 | AGAAAGCAAUAUUACGCCGU | -0.341 ± 0.13 | -0.929 ± 0.11
20 | AGAAAGCAAUAUUACGCUGU | -1.98 ± 0.16 | -2.34 ± 0.14
21 | AGAAAGCAAUAUUACGGCAU | -0.525 ± 0.064 | -0.587 ± 0.051
22 | AGAAAGCAAUAUUACGGGUC | -3.35 ± 0.31 | -3.05 ± 0.21
23 | AGAAAGCAAUAUUACGGGUU | -1.61 ± 0.12 | -2.85 ± 0.15
24 | AGAAAGCAAUAUUACGGUCG | -0.0273 ± 0.092 | -0.278 ± 0.07
25 | AGAAAGCAAUAUUACGUACU | 0.261 ± 0.11 | -0.412 ± 0.096

Row | Sequence | self-splicing fitness (ln) (37 °C) | self-splicing fitness (ln) (30 °C)
26 | AGAAAGCAAUAUUACGUCCC | 0.119 ± 0.25 | -0.156 ± 0.18
27 | AGAAAGCAAUAUUACGUCUA | -0.00176 ± 0.092 | -0.728 ± 0.091
28 | AGAAAGCAAUAUUACGUCUU | -0.678 ± 0.088 | -1.77 ± 0.09
29 | AGAAAGCAAUAUUACGUGGA | -2.28 ± 0.13 | -2.47 ± 0.12
30 | AGAAAGCAAUAUUACGUUCA | 0.14 ± 0.12 | -0.142 ± 0.084
31 | AGAAAGCAAUAUUACGUUUU | -3.06 ± 0.2 | -3.84 ± 0.17
32 | AGACAGCAAUAUUACGACCU | -0.545 ± 0.093 | 0.0744 ± 0.084
33 | AGACAGCAAUAUUACGACGG | -1.86 ± 0.13 | -2.19 ± 0.14
34 | AGACAGCAAUAUUACGACUA | -0.383 ± 0.088 | -0.888 ± 0.092
35 | AGACAGCAAUAUUACGAGGC | -2.82 ± 0.3 | -3.34 ± 0.23
36 | AGACAGCAAUAUUACGCAGU | -3.04 ± 0.27 | -3.96 ± 0.2
37 | AGACAGCAAUAUUACGCCCA | 0.432 ± 0.28 | -0.00321 ± 0.2
38 | AGACAGCAAUAUUACGCCCU | 0.0722 ± 0.1 | -0.687 ± 0.083
39 | AGACAGCAAUAUUACGCCGG | -1.67 ± 0.16 | -2.95 ± 0.18
40 | AGACAGCAAUAUUACGCGCG | 0.222 ± 0.096 | -0.587 ± 0.074
41 | AGACAGCAAUAUUACGCUAU | -0.948 ± 0.12 | -3.31 ± 0.18
42 | AGACAGCAAUAUUACGCUGC | -2.64 ± 0.24 | -3.72 ± 0.2
43 | AGACAGCAAUAUUACGCUGG | -3.5 ± 0.3 | -3.98 ± 0.31
44 | AGACAGCAAUAUUACGGAAU | -2.29 ± 0.17 | -3.47 ± 0.14
45 | AGACAGCAAUAUUACGGACC | -0.201 ± 0.086 | -0.551 ± 0.075
46 | AGACAGCAAUAUUACGGAGG | -2.48 ± 0.23 | -3.35 ± 0.18
47 | AGACAGCAAUAUUACGGCAA | -0.634 ± 0.079 | -1.37 ± 0.064
48 | AGACAGCAAUAUUACGGCCC | -0.253 ± 0.25 | -0.119 ± 0.2
49 | AGACAGCAAUAUUACGGCGU | -0.314 ± 0.065 | -0.937 ± 0.057
50 | AGACAGCAAUAUUACGGGAA | -1.38 ± 0.14 | -2.68 ± 0.18

Row | Sequence | self-splicing fitness (ln) (37 °C) | self-splicing fitness (ln) (30 °C)
51 | AGACAGCAAUAUUACGGGGU | -2.25 ± 0.15 | -3.82 ± 0.17
52 | AGACAGCAAUAUUACGGUUG | -1.87 ± 0.13 | -1.85 ± 0.088
53 | AGACAGCAAUAUUACGUUAC | -1.34 ± 0.17 | -3.81 ± 0.19
54 | AGACAGCAAUAUUACGUUUG | -1.22 ± 0.086 | -3.34 ± 0.11
55 | AGAGAGCAAUAUUACGAACU | -1.57 ± 0.2 | -1.81 ± 0.2
56 | AGAGAGCAAUAUUACGACUA | – | -2.42 ± 0.44
57 | AGAGAGCAAUAUUACGAGAG | -2.3 ± 0.44 | –
58 | AGAGAGCAAUAUUACGGCCU | -2.58 ± 0.5 | -0.408 ± 0.3
59 | AGAGAGCAAUAUUACGGCGU | -2.7 ± 0.25 | -2.48 ± 0.19
60 | AGAGAGCAAUAUUACGGUCC | -0.974 ± 0.46 | -2.21 ± 0.3
61 | AGAGAGCAAUAUUACGGUCU | -2.71 ± 0.29 | -3.2 ± 0.15
62 | AGAGAGCAAUAUUACGGUGU | -2.97 ± 0.22 | -3.59 ± 0.25
63 | AGAGAGCAAUAUUACGUAUG | -3.33 ± 0.27 | -4.21 ± 0.24
64 | AGAGAGCAAUAUUACGUCGU | -1.78 ± 0.22 | -3.77 ± 0.32
65 | AGAGAGCAAUAUUACGUGUU | -3.64 ± 0.36 | -3.21 ± 0.18
66 | AGAGAGCAAUAUUACGUUUC | -1.41 ± 0.23 | -2.27 ± 0.21
67 | AGAUAGCAAUAUUACGAAUC | -1.06 ± 0.24 | -1.46 ± 0.18
68 | AGAUAGCAAUAUUACGACGC | 0.997 ± 0.22 | -0.572 ± 0.16
69 | AGAUAGCAAUAUUACGACGG | -1.55 ± 0.25 | -2.09 ± 0.2
70 | AGAUAGCAAUAUUACGAGUG | -1.22 ± 0.14 | -2.72 ± 0.15
71 | AGAUAGCAAUAUUACGAUAA | -1.16 ± 0.11 | -2.02 ± 0.11
72 | AGAUAGCAAUAUUACGAUAG | -2.31 ± 0.18 | -2.88 ± 0.21
73 | AGAUAGCAAUAUUACGAUGU | -0.112 ± 0.086 | -0.932 ± 0.079
74 | AGAUAGCAAUAUUACGCACC | 0.267 ± 0.34 | 0.321 ± 0.21
75 | AGAUAGCAAUAUUACGCACG | -0.355 ± 0.12 | -1.13 ± 0.14
